Measurements: paper PMC9482650, “Quantitative fragmentomics allow affinity mapping of interactomes” (Nature Communications, 2022)

T1: PDZD4, Q76G19
T1 sequence (Q76G19 125-224, limits assumed, looked up): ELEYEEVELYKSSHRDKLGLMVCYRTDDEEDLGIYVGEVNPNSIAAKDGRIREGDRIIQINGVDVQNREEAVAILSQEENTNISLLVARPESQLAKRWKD

T2: MPP5, Q8N3R9
T2 sequence (Q8N3R9 251-346, limits assumed, looked up): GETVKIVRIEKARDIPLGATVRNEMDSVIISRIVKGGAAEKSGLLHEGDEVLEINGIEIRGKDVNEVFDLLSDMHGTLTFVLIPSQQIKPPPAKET

T3: SHROOM2, Q13796
T3 sequence (Q13796 21-118, limits assumed, looked up): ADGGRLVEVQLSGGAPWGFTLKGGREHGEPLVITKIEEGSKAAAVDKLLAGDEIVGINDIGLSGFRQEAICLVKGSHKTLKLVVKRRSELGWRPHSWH

T4: MAGI2_1, Q86UL8
T4 sequence (Q86UL8 12-111, limits assumed, looked up): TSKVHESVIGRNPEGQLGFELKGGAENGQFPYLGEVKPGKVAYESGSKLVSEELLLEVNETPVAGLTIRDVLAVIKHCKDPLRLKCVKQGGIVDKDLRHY

T5: PTPN4, P29074
T5 sequence (P29074 512-599, limits assumed, looked up): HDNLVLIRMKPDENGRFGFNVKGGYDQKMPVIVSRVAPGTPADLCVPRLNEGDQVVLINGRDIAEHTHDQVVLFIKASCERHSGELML

T6: SHROOM3, Q8TF72
T6 sequence (Q8TF72 20-120, limits assumed, looked up): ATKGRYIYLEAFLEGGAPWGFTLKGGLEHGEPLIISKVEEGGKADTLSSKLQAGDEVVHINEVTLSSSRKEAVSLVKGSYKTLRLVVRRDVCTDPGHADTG

T7: APBA3_2, O96018
T7 sequence (O96018 480-570, limits assumed, looked up): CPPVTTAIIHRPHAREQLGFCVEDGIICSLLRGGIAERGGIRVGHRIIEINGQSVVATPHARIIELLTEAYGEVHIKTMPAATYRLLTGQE

T8: PCLO, Q9Y6V0
T8 sequence (Q9Y6V0 4491-4600, limits assumed, looked up): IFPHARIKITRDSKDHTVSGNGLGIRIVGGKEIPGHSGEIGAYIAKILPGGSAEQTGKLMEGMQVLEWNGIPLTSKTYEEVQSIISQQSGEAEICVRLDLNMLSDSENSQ

T9: MPDZ_2, O75970
T9 sequence (O75970 252-347, limits assumed, looked up): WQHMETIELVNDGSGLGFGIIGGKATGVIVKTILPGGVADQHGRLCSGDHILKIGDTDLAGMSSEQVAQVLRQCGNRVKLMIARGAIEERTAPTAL

T10: MPDZ_12, O75970
T10 sequence (O75970 1857-1958, limits assumed, looked up): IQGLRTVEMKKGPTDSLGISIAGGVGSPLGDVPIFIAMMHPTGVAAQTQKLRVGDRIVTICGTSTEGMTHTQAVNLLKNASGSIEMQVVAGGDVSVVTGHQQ

T11: PDZD8, Q8NEN9
T11 sequence (Q8NEN9 361-459, limits assumed, looked up): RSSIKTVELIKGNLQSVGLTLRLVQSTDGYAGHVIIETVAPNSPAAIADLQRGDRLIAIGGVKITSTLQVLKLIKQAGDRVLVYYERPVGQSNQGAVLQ

T12: DVL1, O14640
T12 sequence (O14640 246-333, limits assumed, looked up): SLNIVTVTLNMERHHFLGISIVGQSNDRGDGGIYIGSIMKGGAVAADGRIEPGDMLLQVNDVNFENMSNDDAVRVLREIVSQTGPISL


Target: T1, PDZD4, Q76G19
Test: holdup assay
Set-up: key: below the threshold = too weak to quantify, mostly under pKd 3.1 to 4
Details: plain residues with an end cap or a label only (N-terminal biotin on a linker: ttds)

Binder	pKd
IQREDQETAV [DGKZ, Q13574]	below the threshold
DPLTPSRSQL [DGKK, Q5KSL6]	below the threshold

Target: T2, MPP5, Q8N3R9
Test: holdup assay
Set-up: key: below the threshold = too weak to quantify, mostly under pKd 3.1 to 4
Details: plain residues with an end cap or a label only (N-terminal biotin on a linker: ttds)

Binder	pKd
IQREDQETAV [DGKZ, Q13574]	below the threshold
DPLTPSRSQL [DGKK, Q5KSL6]	below the threshold

Target: PARD3_1, Q8TEW0
Sequence (Q8TEW0 264-372): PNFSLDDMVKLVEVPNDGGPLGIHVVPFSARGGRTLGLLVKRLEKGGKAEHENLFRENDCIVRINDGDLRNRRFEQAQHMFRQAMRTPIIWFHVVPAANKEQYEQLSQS
Test: holdup assay
Set-up: key: below the threshold = too weak to quantify, mostly under pKd 3.1 to 4
Details: plain residues with an end cap or a label only (N-terminal biotin on a linker: ttds)

Binder	pKd
IQREDQETAV [DGKZ, Q13574]	below the threshold
DPLTPSRSQL [DGKK, Q5KSL6]	below the threshold

Target: T3, SHROOM2, Q13796
Test: holdup assay
Set-up: key: below the threshold = too weak to quantify, mostly under pKd 3.1 to 4
Details: plain residues with an end cap or a label only (N-terminal biotin on a linker: ttds)

Binder	pKd
IQREDQETAV [DGKZ, Q13574]	below the threshold
DPLTPSRSQL [DGKK, Q5KSL6]	below the threshold

Target: T4, MAGI2_1, Q86UL8
Test: holdup assay
Set-up: key: below the threshold = too weak to quantify, mostly under pKd 3.1 to 4
Details: plain residues with an end cap or a label only (N-terminal biotin on a linker: ttds)

Binder	pKd
IQREDQETAV [DGKZ, Q13574]	below the threshold
DPLTPSRSQL [DGKK, Q5KSL6]	below the threshold

Target: MAST3, O60307
Sequence (O60307 945-1048): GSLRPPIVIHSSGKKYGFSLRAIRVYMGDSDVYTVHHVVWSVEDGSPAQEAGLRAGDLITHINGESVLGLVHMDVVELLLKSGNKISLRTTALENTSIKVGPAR
Test: holdup assay
Set-up: key: below the threshold = too weak to quantify, mostly under pKd 3.1 to 4
Details: plain residues with an end cap or a label only (N-terminal biotin on a linker: ttds)

Binder	pKd
IQREDQETAV [DGKZ, Q13574]	below the threshold
DPLTPSRSQL [DGKK, Q5KSL6]	below the threshold

Target: T5, PTPN4, P29074
Test: holdup assay
Set-up: key: below the threshold = too weak to quantify, mostly under pKd 3.1 to 4
Details: plain residues with an end cap or a label only (N-terminal biotin on a linker: ttds)

Binder	pKd
IQREDQETAV [DGKZ, Q13574]	4.8
DPLTPSRSQL [DGKK, Q5KSL6]	below the threshold

Target: TJP1_3, Q07157
Sequence (Q07157 416-512): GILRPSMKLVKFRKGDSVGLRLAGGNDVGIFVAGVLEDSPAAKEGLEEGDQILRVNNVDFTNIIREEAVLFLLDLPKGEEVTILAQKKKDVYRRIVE
Test: holdup assay
Set-up: key: below the threshold = too weak to quantify, mostly under pKd 3.1 to 4
Details: plain residues with an end cap or a label only (N-terminal biotin on a linker: ttds)

Binder	pKd
IQREDQETAV [DGKZ, Q13574]	below the threshold
DPLTPSRSQL [DGKK, Q5KSL6]	below the threshold

Target: MAGI3_3, Q5TCQ9
Sequence (Q5TCQ9 572-655): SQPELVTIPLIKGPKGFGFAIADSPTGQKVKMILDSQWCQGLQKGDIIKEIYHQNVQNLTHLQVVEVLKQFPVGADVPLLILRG
Test: holdup assay
Set-up: key: below the threshold = too weak to quantify, mostly under pKd 3.1 to 4
Details: plain residues with an end cap or a label only (N-terminal biotin on a linker: ttds)

Binder	pKd
IQREDQETAV [DGKZ, Q13574]	below the threshold
DPLTPSRSQL [DGKK, Q5KSL6]	below the threshold

Target: NHERF4_3, Q86UT5
Sequence (Q86UT5 325-412): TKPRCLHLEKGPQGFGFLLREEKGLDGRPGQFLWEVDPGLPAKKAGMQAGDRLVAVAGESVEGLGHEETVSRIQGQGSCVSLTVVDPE
Test: holdup assay
Set-up: key: below the threshold = too weak to quantify, mostly under pKd 3.1 to 4
Details: plain residues with an end cap or a label only (N-terminal biotin on a linker: ttds)

Binder	pKd
IQREDQETAV [DGKZ, Q13574]	below the threshold
DPLTPSRSQL [DGKK, Q5KSL6]	below the threshold

Target: Inadl_7, Q8NI35
Sequence (Q8NI35 1219-1332): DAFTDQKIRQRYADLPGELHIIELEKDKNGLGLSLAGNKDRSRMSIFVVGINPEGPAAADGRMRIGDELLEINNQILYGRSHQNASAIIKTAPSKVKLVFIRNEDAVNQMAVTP
Test: holdup assay
Set-up: key: below the threshold = too weak to quantify, mostly under pKd 3.1 to 4
Details: plain residues with an end cap or a label only (N-terminal biotin on a linker: ttds)

Binder	pKd
IQREDQETAV [DGKZ, Q13574]	below the threshold
DPLTPSRSQL [DGKK, Q5KSL6]	below the threshold

Target: T6, SHROOM3, Q8TF72
Test: holdup assay
Set-up: key: below the threshold = too weak to quantify, mostly under pKd 3.1 to 4
Details: plain residues with an end cap or a label only (N-terminal biotin on a linker: ttds)

Binder	pKd
IQREDQETAV [DGKZ, Q13574]	below the threshold
DPLTPSRSQL [DGKK, Q5KSL6]	below the threshold

Target: MAGI3_5, Q5TCQ9
Sequence (Q5TCQ9 847-941): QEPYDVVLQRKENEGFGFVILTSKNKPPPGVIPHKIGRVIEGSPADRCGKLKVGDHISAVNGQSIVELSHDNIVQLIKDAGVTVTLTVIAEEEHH
Test: holdup assay
Set-up: key: below the threshold = too weak to quantify, mostly under pKd 3.1 to 4
Details: plain residues with an end cap or a label only (N-terminal biotin on a linker: ttds)

Binder	pKd
IQREDQETAV [DGKZ, Q13574]	4.51
DPLTPSRSQL [DGKK, Q5KSL6]	below the threshold

Target: T7, APBA3_2, O96018
Test: holdup assay
Set-up: key: below the threshold = too weak to quantify, mostly under pKd 3.1 to 4
Details: plain residues with an end cap or a label only (N-terminal biotin on a linker: ttds)

Binder	pKd
IQREDQETAV [DGKZ, Q13574]	4.74
DPLTPSRSQL [DGKK, Q5KSL6]	4.47

Target: T8, PCLO, Q9Y6V0
Test: holdup assay
Set-up: key: below the threshold = too weak to quantify, mostly under pKd 3.1 to 4
Details: plain residues with an end cap or a label only (N-terminal biotin on a linker: ttds)

Binder	pKd
IQREDQETAV [DGKZ, Q13574]	below the threshold
DPLTPSRSQL [DGKK, Q5KSL6]	below the threshold

Target: RIMS2, Q9UQ26
Sequence (Q9UQ26 637-758): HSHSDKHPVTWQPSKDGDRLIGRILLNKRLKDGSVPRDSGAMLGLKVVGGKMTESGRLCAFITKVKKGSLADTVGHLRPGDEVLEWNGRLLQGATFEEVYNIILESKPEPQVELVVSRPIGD
Test: holdup assay
Set-up: key: below the threshold = too weak to quantify, mostly under pKd 3.1 to 4
Details: plain residues with an end cap or a label only (N-terminal biotin on a linker: ttds)

Binder	pKd
IQREDQETAV [DGKZ, Q13574]	below the threshold
DPLTPSRSQL [DGKK, Q5KSL6]	below the threshold

Target: SDCBP_1, O00560
Sequence (O00560 111-198): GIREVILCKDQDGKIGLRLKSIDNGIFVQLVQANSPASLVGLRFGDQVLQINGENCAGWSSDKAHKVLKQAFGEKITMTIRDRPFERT
Test: holdup assay
Set-up: key: below the threshold = too weak to quantify, mostly under pKd 3.1 to 4
Details: plain residues with an end cap or a label only (N-terminal biotin on a linker: ttds)

Binder	pKd
IQREDQETAV [DGKZ, Q13574]	below the threshold
DPLTPSRSQL [DGKK, Q5KSL6]	below the threshold

Target: T9, MPDZ_2, O75970
Test: holdup assay
Set-up: key: below the threshold = too weak to quantify, mostly under pKd 3.1 to 4
Details: plain residues with an end cap or a label only (N-terminal biotin on a linker: ttds)

Binder	pKd
IQREDQETAV [DGKZ, Q13574]	below the threshold
DPLTPSRSQL [DGKK, Q5KSL6]	below the threshold

Target: T10, MPDZ_12, O75970
Test: holdup assay
Set-up: key: below the threshold = too weak to quantify, mostly under pKd 3.1 to 4
Details: plain residues with an end cap or a label only (N-terminal biotin on a linker: ttds)

Binder	pKd
IQREDQETAV [DGKZ, Q13574]	below the threshold
DPLTPSRSQL [DGKK, Q5KSL6]	below the threshold

Target: T11, PDZD8, Q8NEN9
Test: holdup assay
Set-up: key: below the threshold = too weak to quantify, mostly under pKd 3.1 to 4
Details: plain residues with an end cap or a label only (N-terminal biotin on a linker: ttds)

Binder	pKd
IQREDQETAV [DGKZ, Q13574]	below the threshold
DPLTPSRSQL [DGKK, Q5KSL6]	below the threshold

Target: T12, DVL1, O14640
Test: holdup assay
Set-up: key: below the threshold = too weak to quantify, mostly under pKd 3.1 to 4
Details: plain residues with an end cap or a label only (N-terminal biotin on a linker: ttds)

Binder	pKd
IQREDQETAV [DGKZ, Q13574]	below the threshold
DPLTPSRSQL [DGKK, Q5KSL6]	below the threshold

Target: PTPN13_2, Q12923
Sequence (Q12923 1363-1462): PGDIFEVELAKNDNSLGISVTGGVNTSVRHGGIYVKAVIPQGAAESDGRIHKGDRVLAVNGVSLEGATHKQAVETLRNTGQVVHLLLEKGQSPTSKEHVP
Test: holdup assay
Set-up: key: below the threshold = too weak to quantify, mostly under pKd 3.1 to 4
Details: plain residues with an end cap or a label only (N-terminal biotin on a linker: ttds)

Binder	pKd
IQREDQETAV [DGKZ, Q13574]	below the threshold
DPLTPSRSQL [DGKK, Q5KSL6]	4.4

Target: GRIP2_2, Q9C0E4
Sequence (Q9C0E4 137-245): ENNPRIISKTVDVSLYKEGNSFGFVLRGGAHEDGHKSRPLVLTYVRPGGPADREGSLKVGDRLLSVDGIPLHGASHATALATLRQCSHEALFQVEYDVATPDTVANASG
Test: holdup assay
Set-up: key: below the threshold = too weak to quantify, mostly under pKd 3.1 to 4
Details: plain residues with an end cap or a label only (N-terminal biotin on a linker: ttds)

Binder	pKd
IQREDQETAV [DGKZ, Q13574]	below the threshold
DPLTPSRSQL [DGKK, Q5KSL6]	below the threshold

Target: MAGI3_6, Q5TCQ9
Sequence (Q5TCQ9 1014-1103): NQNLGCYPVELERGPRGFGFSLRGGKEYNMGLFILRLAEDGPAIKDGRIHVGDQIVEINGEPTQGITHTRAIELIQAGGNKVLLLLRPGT
Test: holdup assay
Set-up: key: below the threshold = too weak to quantify, mostly under pKd 3.1 to 4
Details: plain residues with an end cap or a label only (N-terminal biotin on a linker: ttds)

Binder	pKd
IQREDQETAV [DGKZ, Q13574]	below the threshold
DPLTPSRSQL [DGKK, Q5KSL6]	below the threshold

Target: PDZD9, Q8IXQ8
Sequence (Q8IXQ8 23-120): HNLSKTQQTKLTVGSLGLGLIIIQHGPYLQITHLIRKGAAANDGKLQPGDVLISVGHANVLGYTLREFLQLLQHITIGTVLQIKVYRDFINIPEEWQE
Test: holdup assay
Set-up: key: below the threshold = too weak to quantify, mostly under pKd 3.1 to 4
Details: plain residues with an end cap or a label only (N-terminal biotin on a linker: ttds)

Binder	pKd
IQREDQETAV [DGKZ, Q13574]	below the threshold
DPLTPSRSQL [DGKK, Q5KSL6]	below the threshold
